Measurements as given in the supplement of paper PMC12764529.
± gives the half width of the 95% confidence interval.

What was measured:
[1] = folding stability dG unfold from chymotrypsin proteolysis; higher = more stable
Procedure, shortened: (§1)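 Designed mini-proteins with no cysteine and under 80 residues were kept only if AlphaFold2 dimer inter-PAE was above 15. In a PA-tagged cDNA display construct, they were digested with trypsin and chymotrypsin and then sequenced. K50 was inferred by Bayesian fitting of counts, and unfolding free energy was derived per protease or combined against a sequence-predicted unfolded-state K50 and a shared folded-state K50.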

[2] = folding stability dG unfold (combined trypsin and chymotrypsin); higher = more stable
Procedure, shortened: as §1

[3] = folding stability dG unfold from trypsin proteolysis; higher = more stable
Procedure, shortened: as §1

Row | Sequence | folding stability dG unfold [1] | folding stability dG unfold [2] | folding stability dG unfold [3]
1 | SAGGEVKIEVVEKDGELYIVVTVRAPSVEELKKALEELGLEVEVVKIEEVKGEDGETYVVVVVKIKPSAGGS [r16_699_TrROS_Hall] | 3.68 ± 0.065 kcal/mol | 3.24 ± 0.07 kcal/mol | 2.41 ± 0.086 kcal/mol
2 | SAGGEVKPGEEVEVEVLVLVRGEDGELYLVRVKMRFRVKEDGTVEMEVEVEVVRVPLSEEELKALLEASAGG [r13_544_TrROS_Hall] | 5.99 ± 0.26 kcal/mol | > 6 kcal/mol | 4.43 ± 0.14 kcal/mol
3 | SAGGEVKTLEVTLEVNGKKVRVRVELTKDGTLKVTVTFEDGTKVELEIKLPKVKVKEVKFYSLEELKSAGGS [r16_48_TrROS_Hall] | 1.78 ± 0.05 kcal/mol | 2.06 ± 0.1 kcal/mol | 2.22 ± 0.071 kcal/mol
4 | SAGGEVKVEIEVELNEDGTLRVRARVEVRVDGELVTVEVEIEVRLEPAPPPAPPPVLVVDPETGEILSAGGS [r8_269_TrROS_Hall] | 1.94 ± 0.11 kcal/mol | 2.7 ± 0.21 kcal/mol | 3.29 ± 0.2 kcal/mol
5 | SAGGEVKVEIKYDKKKNKIEIKVIVRDKETGEWKELSAEEIAKLLKKKLKLPNVKEIKVEVYEPGEKPSAGG [r13_327_TrROS_Hall] | 1.98 ± 0.12 kcal/mol | 1.97 ± 0.18 kcal/mol | 1.31 ± 0.11 kcal/mol
6 | SAGGEVLVIELSLEELKNLKPNQTVKIKLPDGSELEVRVEEVDGRLYLFVRNKENPEEVELIEEITIESAGG [r13_745_TrROS_Hall] | 3.48 ± 0.049 kcal/mol | 3.3 ± 0.065 kcal/mol | 2.79 ± 0.062 kcal/mol
7 | SAGGEYTVVSVLEERKDPATGKTVTLELLKDPNSNVLYRRVTTTDPANPDVVTTTLYDAAGNKVSTVSSAGG [r13_658_JUSTAS] | 2.62 ± 0.055 kcal/mol | 2.48 ± 0.095 kcal/mol | 2.17 ± 0.046 kcal/mol
8 | SAGGFIVVPIKAKSLEEALEKAREIAAALGIPGTLEDPRVDLDDFLKNYKPDTEVRVYVRHPDGVIDELSAG [r5_503_TrMRF] | 0.223 ± 0.21 kcal/mol | 0.878 ± 0.11 kcal/mol | 1.23 ± 0.033 kcal/mol
9 | SAGGFKIKNIDVERNPDNGWRTITVEFPGNGWKFQIQVPPDGGVKYEWYNNGEPQTYTIPADDLKDLSAGGS [r8_238_TrROS] | 1.34 ± 0.082 kcal/mol | 1.2 ± 0.08 kcal/mol | 1 ± 0.06 kcal/mol
10 | SAGGFWLKNPNGHYIQVNVEVEWEPRRDPDNGKPTWEPKIEINVEVYDPNGEKRPIPEDQAKDLLKKLSAGG [r13_809_TrROS] | 1.64 ± 0.082 kcal/mol | 1.31 ± 0.11 kcal/mol | 0.604 ± 0.073 kcal/mol
11 | SAGGGAAEEAARALIDEAKAALGLSEISEVVLTREGDGVTMTVRFPGKGLVITIDLAAGVVTAVEDVSAGGS [r16_171_JUSTAS] | 2.018 ± 0.0088 kcal/mol | 2.11 ± 0.035 kcal/mol | 2.18 ± 0.034 kcal/mol
12 | SAGGGANIEGVEIYRIPDLDKYLVVVPSPAPEGAEITITVRLPNGPFTKTFVAKYRPLPGNRHVFVGSAGGS [r8_195_TrMRF] | 0.789 ± 0.15 kcal/mol | 1.03 ± 0.12 kcal/mol | 1.23 ± 0.056 kcal/mol
13 | SAGGGEIKIEIYRHPDTIMIRVKWDNPQQLKEEIIELFREENGFKPKEVSVQYNPNGYLYIMFEFKPKSAGG [r13_158_TrROS] | 4.12 ± 0.086 kcal/mol | 3.64 ± 0.21 kcal/mol | 2.59 ± 0.12 kcal/mol
14 | SAGGGELYIMFKFDFTFWINNGTISFDMYIMIRIPIPPPPVPIELEDDPDGSYKYEYPNGKEHEVPNSAGGS [r16_136_TrROS] | 3.16 ± 0.079 kcal/mol | 3.23 ± 0.22 kcal/mol | 3.15 ± 0.1 kcal/mol
15 | SAGGGFEEIIEKAIAKAKELFPDTGAVVPITETVYDPVKKKPIVIEVLVEFDKDGKIKKVEILKISELSAGG [r13_770_TrMRF] | 1.34 ± 0.044 kcal/mol | 2.09 ± 0.11 kcal/mol | 2.86 ± 0.2 kcal/mol
16 | SAGGGFSVSTGTLTDPVTGKPITLTVTNLPDGVSRVTVTLEDGKTFEFTFPANNPPTPEQVAEAVKAFSAGG [r13_492_TrMRF] | 3.631 ± 0.024 kcal/mol | 3.64 ± 0.04 kcal/mol | 3.64 ± 0.078 kcal/mol
17 | SAGGGGSMTIVVPVEVSPETSEEEVRKRAEEIARPIAEELGKKVSIEVSREEDPEGGRRWTATITILSAGGS [r16_279_JUSTAS] | 2.6 ± 0.017 kcal/mol | 2.71 ± 0.046 kcal/mol | 2.88 ± 0.056 kcal/mol
18 | SAGGGGSTPVSSYSYPLPDGSTATITISSKNPDSDIYSFTVTLSDGTTVPLDVPLSESVEEAIARVLTSAGG [r13_470_JUSTAS] | 2.19 ± 0.076 kcal/mol | 2.27 ± 0.092 kcal/mol | 2.31 ± 0.086 kcal/mol
19 | SAGGGHMVNVTLTGSSIEEIKKELEELAKKYGFVINPKKVEKLPGPKYKITLNIKAPDEVVELIKKKSAGGS [r8_357_JUSTAS] | 2.16 ± 0.053 kcal/mol | 1.72 ± 0.13 kcal/mol | 0.943 ± 0.044 kcal/mol
20 | SAGGGIAEILEIREFEDGVEILILTDDLDDPEIIEELIDEIAEELGLPKEKIRAHIIPADIPPLPDEESAGG [r13_430_TrMRF] | 1.18 ± 0.1 kcal/mol | 1.04 ± 0.24 kcal/mol | 1.22 ± 0.061 kcal/mol
21 | SAGGGIEREVAPDEVVEIPIVRIEGDVAREETIEIRLPAGARIEPSGDKIRLWFPEEGKVLEIPLTELSAGG [r13_275_TrMRF] | -0.079 ± 0.059 kcal/mol | -0.0226 ± 0.096 kcal/mol | -0.0241 ± 0.065 kcal/mol

Row | Sequence | folding stability dG unfold [1] | folding stability dG unfold [2] | folding stability dG unfold [3]
22 | SAGGGITITLPDGSVIEIEPVSTFTNEDGQPVTKIKATLTDPVTGTSVEADIYLFPDGGVKIDLKPGSAGGS [r16_651_TrMRF] | 2.35 ± 0.031 kcal/mol | 2.35 ± 0.062 kcal/mol | 2.3 ± 0.051 kcal/mol
23 | SAGGGKKYRVTLELTLPDGTKLTLEFEFEVVPPAVPKPVVTTSLDDIAEFDPETGTAIDKKNKKPIPLPSAG [r5_807_TrMRF] | 3.1 ± 0.065 kcal/mol | 2.66 ± 0.19 kcal/mol | 1.5 ± 0.12 kcal/mol
24 | SAGGGKTVVLVTHPDGTPTTITFDPEKPVATITYPDGTTETLPVPPDKTIADLAKALPADYTAVFAPASAGG [r13_696_TrMRF] | 0.696 ± 0.069 kcal/mol | 0.419 ± 0.13 kcal/mol | -0.338 ± 0.13 kcal/mol
25 | SAGGGLLEELARELGFEAEIEEIPETGILRITLRPEDGSEVEITVKVTRIPGLGEVKLEVLEVKVRPTSAGG [r13_936_TrMRF] | 3.31 ± 0.052 kcal/mol | 3.33 ± 0.2 kcal/mol | 3.15 ± 0.16 kcal/mol
26 | SAGGGLTEEQLEEEAREVAERVEKEFAEATGIEPVEILSVEVFPDGTVRITLRFKGKGGLVTYTIPLSAGGS [r16_622_TrMRF] | 3.58 ± 0.04 kcal/mol | 3.42 ± 0.12 kcal/mol | 3.16 ± 0.096 kcal/mol
27 | SAGGGMGRIPLYGEERVEEIAAEPDVVSVEEDPETGRTYVYFERPDGYYSFTRDNETGEITEKTPLPSAGGS [r8_251_JUSTAS] | -0.523 ± 0.5 kcal/mol | -0.237 ± 0.21 kcal/mol | -0.462 ± 0.23 kcal/mol
28 | SAGGGMKLTITVTNADGSTTTETLTLGDLEKALEFLESDPTASLASIEIKPVPDTSEVEMNVSLTVPASAGG [r13_796_JUSTAS] | 1.55 ± 0.035 kcal/mol | 1.47 ± 0.071 kcal/mol | 1.29 ± 0.056 kcal/mol
29 | SAGGGMMTLVTLEITIPKPPDPKTGKSRPLPLTLEFEVEADDPEALEERVEEELEKIGIPEEARKLLSAGGS [r16_40_JUSTAS] | 0.547 ± 0.16 kcal/mol | 0.698 ± 0.2 kcal/mol | 0.471 ± 0.092 kcal/mol
30 | SAGGGMNEKVIEIEVTVTAPDGKVTTNPTTVVSNSLEEVKASIKASIPPNWSITVTVLKTKSLKEVLSSAGG [r13_513_JUSTAS] | 0.425 ± 0.081 kcal/mol | 0.659 ± 0.095 kcal/mol | 0.667 ± 0.03 kcal/mol
31 | SAGGGMSVSELKKFFPNLKPGATFVLKDPNSDRTGTGTLLSDGTIKVQLPGSEVTVPDDTLVVSISASAGGS [r8_162_JUSTAS] | -0.237 ± 0.27 kcal/mol | 0.321 ± 0.13 kcal/mol | 0.585 ± 0.043 kcal/mol
32 | SAGGGMTPVKKEYVVTLPVPPGMTEEEARELAERAAEELRPELEAKGLAYEVTFELSPEGLVTVTVVASAGG [r13_529_JUSTAS] | 2.41 ± 0.025 kcal/mol | 2.31 ± 0.034 kcal/mol | 2.19 ± 0.042 kcal/mol
33 | SAGGGMTVETTSKETPLPDGSLRRTETITITEPGGKPLTRTTTKIWDPSTGKVLETRPVSNATVVAESSAGG [r13_1008_JUSTAS] | -0.0787 ± 0.15 kcal/mol | -0.187 ± 0.14 kcal/mol | -0.944 ± 0.82 kcal/mol
34 | SAGGGMTVTIEVEGSIKKSIKGISYKDDKEKKESNKNKYLKKTITVTLTAEDDPNAAAAAIAALGLGSAGGS [r16_467_JUSTAS] | 0.313 ± 0.21 kcal/mol | 0.181 ± 0.25 kcal/mol | 0.144 ± 0.23 kcal/mol
35 | SAGGGPEEIRRAAEALAAELAAELGLEVVEVEVEVREDGTVTVRITVRLPDGSKLEITLTLPAGAPLSAGGS [r8_175_TrROS_Hall] | 1.15 ± 0.038 kcal/mol | 1.65 ± 0.073 kcal/mol | 2.03 ± 0.05 kcal/mol
36 | SAGGGPFGIPFPFPIEDPDRLDLVEGLVAELEEFFRSLGAGPLTAERVGDTTYVVLVPFDGKPIVSGSAGGS [r16_703_TrMRF] | 1.95 ± 0.066 kcal/mol | 1.8 ± 0.089 kcal/mol | 1.51 ± 0.025 kcal/mol
37 | SAGGGPLRTVEVELEFETEEEAEKAIKEYLEKLGLPPEKVEVSFVSREERLVEDKIVYRYKFVFTLPSAGGS [r16_240_JUSTAS] | 5.13 ± 0.13 kcal/mol | 4.98 ± 0.17 kcal/mol | 4.09 ± 0.13 kcal/mol
38 | SAGGGSAWKVTAENLPADGYVKFPDGTTVPPGTELTVPLSAGYTDIRALDPEGNVVSVELVPLPEPKLSAGG [r13_441_JUSTAS] | -0.274 ± 0.29 kcal/mol | -0.187 ± 0.18 kcal/mol | -0.15 ± 0.14 kcal/mol
39 | SAGGGSDTVPPVPKATITFTLPAESPEEAEAAAEEIARELEEEGGIPATATVTTDPETGTVTVTITLESAGG [r13_517_TrMRF] | 0.672 ± 0.059 kcal/mol | 0.855 ± 0.069 kcal/mol | 0.971 ± 0.033 kcal/mol
40 | SAGGGSISISLPAEELKALSPEDVIEVTAPDGTKIKAKPVKKGDTYPVTAEDPNNPKNATEMGTATLPSAGG [r13_745_JUSTAS] | 0.4 ± 0.095 kcal/mol | 0.176 ± 0.19 kcal/mol | 0.0233 ± 0.084 kcal/mol
41 | SAGGGSISPAIVAALRAAGASLEEIVAYLNEQGYPIASVLGEEEHHHHHHITLLLPETGETVTVELHSAGGS [r8_179_JUSTAS] | 3.029 ± 0.028 kcal/mol | 2.79 ± 0.096 kcal/mol | 2.43 ± 0.068 kcal/mol
42 | SAGGGSMEVVKEEVSEEVEVLPNGTVLTTKTITYKTPDGKEYTETVLERVDPVTGKREVIEKKTYPSSAGGS [r16_50_JUSTAS] | 2.64 ± 0.045 kcal/mol | 2.4 ± 0.1 kcal/mol | 1.59 ± 0.12 kcal/mol
